From patent US20220323386A1 (UNIVERSITY OF SOUTHERN CALIFORNIA, published 2022)

Target: neurogenic locus notch homolog protein 1 (NOTCH1) (UniProt P46531 19-2555, limits assumed)
Assay: large-scale immunoaffinity purification and LC-MS analysis

Chain of neurogenic locus notch homolog protein 1 (NOTCH1) (P46531 19-2555 limits assumed): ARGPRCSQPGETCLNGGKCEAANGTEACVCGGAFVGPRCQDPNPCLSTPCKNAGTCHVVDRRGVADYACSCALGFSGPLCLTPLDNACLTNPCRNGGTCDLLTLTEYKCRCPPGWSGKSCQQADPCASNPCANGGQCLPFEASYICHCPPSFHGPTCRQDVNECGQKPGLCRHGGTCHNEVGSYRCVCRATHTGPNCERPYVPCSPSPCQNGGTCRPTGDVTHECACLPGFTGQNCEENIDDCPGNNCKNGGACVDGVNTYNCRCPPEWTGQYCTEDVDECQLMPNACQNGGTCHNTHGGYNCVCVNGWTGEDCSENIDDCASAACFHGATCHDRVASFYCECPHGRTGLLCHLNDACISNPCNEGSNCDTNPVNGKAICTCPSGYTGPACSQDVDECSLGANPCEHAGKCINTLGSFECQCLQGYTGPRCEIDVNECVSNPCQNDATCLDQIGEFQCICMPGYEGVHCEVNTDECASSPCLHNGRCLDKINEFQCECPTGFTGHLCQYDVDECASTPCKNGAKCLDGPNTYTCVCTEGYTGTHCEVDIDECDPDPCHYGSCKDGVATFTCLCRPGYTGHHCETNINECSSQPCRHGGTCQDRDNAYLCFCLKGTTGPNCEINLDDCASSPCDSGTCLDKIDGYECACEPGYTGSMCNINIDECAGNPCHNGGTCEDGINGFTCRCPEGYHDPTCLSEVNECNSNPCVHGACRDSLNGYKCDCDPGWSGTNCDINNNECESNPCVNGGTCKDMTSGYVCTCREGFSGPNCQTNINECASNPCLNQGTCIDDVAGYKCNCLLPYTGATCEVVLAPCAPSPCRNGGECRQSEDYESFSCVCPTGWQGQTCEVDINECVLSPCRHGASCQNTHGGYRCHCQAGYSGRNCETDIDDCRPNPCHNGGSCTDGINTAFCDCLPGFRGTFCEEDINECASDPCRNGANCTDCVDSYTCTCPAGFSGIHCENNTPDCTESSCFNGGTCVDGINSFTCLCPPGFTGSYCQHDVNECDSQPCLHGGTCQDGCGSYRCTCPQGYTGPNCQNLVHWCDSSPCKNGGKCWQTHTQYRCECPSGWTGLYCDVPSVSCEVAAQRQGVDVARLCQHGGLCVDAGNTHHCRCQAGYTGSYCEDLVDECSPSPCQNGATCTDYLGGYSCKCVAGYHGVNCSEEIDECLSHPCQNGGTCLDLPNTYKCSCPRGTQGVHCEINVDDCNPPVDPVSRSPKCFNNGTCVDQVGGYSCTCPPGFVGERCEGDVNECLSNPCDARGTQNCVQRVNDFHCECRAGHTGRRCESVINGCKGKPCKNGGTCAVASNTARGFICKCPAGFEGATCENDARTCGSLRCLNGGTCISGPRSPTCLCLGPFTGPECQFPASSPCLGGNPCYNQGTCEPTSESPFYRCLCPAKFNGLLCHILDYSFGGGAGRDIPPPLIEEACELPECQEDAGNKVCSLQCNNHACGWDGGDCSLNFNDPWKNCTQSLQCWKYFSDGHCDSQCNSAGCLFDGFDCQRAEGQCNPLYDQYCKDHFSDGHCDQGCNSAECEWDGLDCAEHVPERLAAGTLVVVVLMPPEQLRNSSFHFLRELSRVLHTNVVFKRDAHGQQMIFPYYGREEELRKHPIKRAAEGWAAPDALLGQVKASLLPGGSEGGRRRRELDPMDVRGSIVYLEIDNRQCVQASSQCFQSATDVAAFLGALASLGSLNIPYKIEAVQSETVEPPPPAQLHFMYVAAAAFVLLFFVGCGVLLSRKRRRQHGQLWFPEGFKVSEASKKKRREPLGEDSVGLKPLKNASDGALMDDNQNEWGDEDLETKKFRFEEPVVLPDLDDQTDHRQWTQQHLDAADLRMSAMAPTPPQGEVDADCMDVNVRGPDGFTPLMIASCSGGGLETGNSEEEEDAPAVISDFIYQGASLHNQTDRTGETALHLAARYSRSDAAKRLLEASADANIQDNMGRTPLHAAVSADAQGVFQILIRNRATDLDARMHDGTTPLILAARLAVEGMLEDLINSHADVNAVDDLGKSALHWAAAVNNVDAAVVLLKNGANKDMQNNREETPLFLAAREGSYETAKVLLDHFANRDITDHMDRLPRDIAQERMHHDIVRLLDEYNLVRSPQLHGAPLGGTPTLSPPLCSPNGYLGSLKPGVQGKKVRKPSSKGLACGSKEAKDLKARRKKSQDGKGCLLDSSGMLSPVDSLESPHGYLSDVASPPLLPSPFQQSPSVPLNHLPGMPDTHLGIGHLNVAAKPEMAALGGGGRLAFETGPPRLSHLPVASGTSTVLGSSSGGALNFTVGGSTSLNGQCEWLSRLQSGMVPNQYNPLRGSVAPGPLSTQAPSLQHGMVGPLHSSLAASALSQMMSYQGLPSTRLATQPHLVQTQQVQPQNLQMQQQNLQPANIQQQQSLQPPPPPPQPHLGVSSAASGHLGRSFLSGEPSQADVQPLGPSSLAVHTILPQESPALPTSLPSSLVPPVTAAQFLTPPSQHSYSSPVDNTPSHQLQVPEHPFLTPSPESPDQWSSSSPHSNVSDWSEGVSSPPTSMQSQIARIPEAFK

binding result: binds
B1: Tre2-Bub2-Cdc16 domain family member 15 (TBC1D15) (other, UniProt Q8TC07 1-691, looked up)
chain: MAAAGVVSGKIIYEQEGVYIHSSCGKTNDQDGLISGILRVLEKDAEVIVDWRPLDDALDSSSILYARKDSSSVVEWTQAPKERGHRGSEHLNSYEAEWDMVNTVSFKRKPHTNGDAPSHRNGKSKWSFLFSLTDLKSIKQNKEGMGWSYLVFCLKDDVVLPALHFHQGDSKLLIESLEKYVVLCESPQDKRTLLVNCQNKSLSQSFENLLDEPAYGLIQAGLLDRRKLLWAIHHWKKIKKDPYTATMIGFSKVTNYIFDSLRGSDPSTHQRPPSEMADFLSDAIPGLKINQQEEPGFEVITRIDLGERPVVQRREPVSLEEWTKNIDSEGRILNVDNMKQMIFRGGLSHALRKQAWKFLLGYFPWDSTKEERTQLQKQKTDEYFRMKLQWKSISQEQEKRNSRLRDYRSLIEKDVNRTDRTNKFYEGQDNPGLILLHDILMTYCMYDFDLGYVQGMSDLLSPLLYVMENEVDAFWCFASYMDQMHQNFEEQMQGMKTQLIQLSTLLRLLDSGFCSYLESQDSGYLYFCFRWLLIRFKREFSFLDILRLWEVMWTELPCTNFHLLLCCAILESEKQQIMEKHYGFNEILKHINELSMKIDVEDILCKAEAISLQMVKCKELPQAVCEILGLQGSEVTTPDSDVGEDENVVMTPCPTSAFQSNALPTLSASGARNDSPTQIPVSSDVCRLTPA
notes: TBC1D15 as present in cell lysates (co-IP); also called TBC1 domain family member 15
